Tests used:
[1] = target: SF2/ASF (wild type) (Homo sapiens (Human)) (UniProt Q07955)
[2] = target: myelin basic protein (MBP)

SR protein-specific kinase, SRPK1 (enzyme)
Km for phosphorylation of SF2/ASF [1]: 0.07 µM | Vmax for phosphorylation of SF2/ASF [1]: 0.45 pmol per min | Km for phosphorylation of MBP [2]: 5.8 µM | Vmax for phosphorylation of MBP [2]: 0.02 pmol per min

Reference: US5559019
